From article PMC6588349, “Conformational dynamics between transmembrane domains and allosteric modulation of a metabotropic glutamate receptor” (eLife, 2019)

B1: SNAP-mGluR3-TMD (domain or fragment, rat, UniProt P31422 567-879, looked up)
chain: EDYIKWEDAWAIGPVTIACLGFLCTCIVITVFIKHNNTPLVKASGRELCYILLFGVSLSYCMTFFFIAKPSPVICALRRLGLGTSFAICYSALLTKTNCIARIFDGVKNGAQRPKFISPSSQVFICLGLILVQIVMVSVWLILETPGTRRYTLPEKRETVILKCNVKDSSMLISLTYDVVLVILCTVYAFKTRKCPENFNEAKFIGFTMYTTCIIWLAFLPIFYVTSSDYRVQTTTMCISVSLSGFVVLGCLFAPKVHIVLFQPQKNVVTHRLHLNRFSVSGTATTYSQSSASTYVPTVCNGREVLDSTTSSL
modifications: SNAP tag labelled with BG-LD555
notes: mGluR3, rat; LBD and CRD deleted; following the SNAP tag the receptor starts at E567; Made by modifying the full-length SNAP-tagged cDNA of Doumazane et al., 2011; source: HEK 293T, transfected, surface-labelled, in detergent lysate; not shown: HA, N-terminal, kept; SNAP, N-terminal, kept
B2: SNAP-mGluR1-TMD (domain or fragment, rat, UniProt P23385 583-1199, looked up)
chain: VRYLEWSDIESIIAIAFSCLGILVTLFVTLIFVLYRDTPVVKSSSRELCYIILAGIFLGYVCPFTLIAKPTTTSCYLQRLLVGLSSAMCYSALVTKTNRIARILAGSKKKICTRKPRFMSAWAQVIIASILISVQLTLVVTLIIMEPPMPILSYPSIKEVYLICNTSNLGVVAPVGYNGLLIMSCTYYAFKTRNVPANFNEAKYIAFTMYTTCIIWLAFVPIYFGSNYKIITTCFAVSLSVTVALGCMFTPKMYIIIAKPERNVRSAFTTSDVVRMHVGDGKLPCRSNTFLNIFRRKKPGAGNANSNGKSVSWSEPGGRQAPKGQHVWQRLSVHVKTNETACNQTAVIKPLTKSYQGSGKSLTFSDASTKTLYNVEEEDNTPSAHFSPPSSPSMVVHRRGPPVATTPPLPPHLTAEETPLFLADSVIPKGLPPPLPQQQPQQPPPQQPPQQPKSLMDQLQGVVTNFGSGIPDFHAVLAGPGTPGNSLRSLYPPPPPPQHLQMLPLHLSTFQEESISPPGEDIDDDSERFKLLQEFVYEREGNTEEDELEEEEDLPTASKLTPEDSPALTPPSPFRDSVASGSSVPSSPVSESVLCTPPNVTYASVILRDYKQSSSTL
modifications: SNAP tag labelled with BG-LD555
notes: LBD and CRD deleted; following the SNAP tag the receptor starts at V583; Made by modifying the full-length SNAP-tagged cDNA of Doumazane et al., 2011; source: HEK 293T, transfected, surface-labelled, in detergent lysate; not shown: HA, N-terminal, kept; SNAP, N-terminal, kept
B3: SNAP-mGluR2-TMD (HA-SNAP-tagged isolated transmembrane domain of mGluR2) (domain or fragment, rat, UniProt P31421 558-872, looked up)
chain: QEYIRWGDAWAVGPVTIACLGALATLFVLGVFVRHNATPVVKASGRELCYILLGGVFLCYCMTFVFIAKPSTAVCTLRRLGLGTAFSVCYSALLTKTNRIARIFGGAREGAQRPRFISPASQVAICLALISGQLLIVAAWLVVEAPGTGKETAPERREVVTLRCNHRDASMLGSLAYNVLLIALCTLYAFKTRKCPENFNEAKFIGFTMYTTCIIWLAFLPIFYVTSSDYRVQTTTMCVSVSLSGSVVLGCLFAPKLHIILFQPQKNVVSHRAPTSRFGSAAPRASANLGQGSGSQFVPTVCNGREVVDSTTSSL
modifications: SNAP tag labelled with BG-LD555 (SiMPull); with BG-LD655 as acceptor or with a mixture of BG-LD555 and BG-LD655 (FRET)
notes: mGluR2, rat; LBD and CRD deleted; following the SNAP tag the receptor starts at Q558; Made by modifying the full-length SNAP-tagged cDNA of Doumazane et al., 2011; also called HA-SNAP-mGluR2-TMD; isolated mGluR2 TMD; source: HEK 293T, transfected; surface-labelled, in detergent lysate (SiMPull); on living cells (FRET); not shown: HA, N-terminal, kept; SNAP, N-terminal, kept
B4: SNAP-tagged full-length mGluR2 (HA-SNAP-mGluR2) (receptor, rat, UniProt P31421 19-872, looked up)
chain: EGPAKKVLTLEGDLVLGGLFPVHQKGGPAEECGPVNEHRGIQRLEAMLFALDRINRDPHLLPGVRLGAHILDSCSKDTHALEQALDFVRASLSRGADGSRHICPDGSYATHSDAPTAVTGVIGGSYSDVSIQVANLLRLFQIPQISYASTSAKLSDKSRYDYFARTVPPDFFQAKAMAEILRFFNWTYVSTVASEGDYGETGIEAFELEARARNICVATSEKVGRAMSRAAFEGVVRALLQKPSARVAVLFTRSEDARELLAATQRLNASFTWVASDGWGALESVVAGSERAAEGAITIELASYPISDFASYFQSLDPWNNSRNPWFREFWEERFHCSFRQRDCAAHSLRAVPFEQESKIMFVVNAVYAMAHALHNMHRALCPNTTHLCDAMRPVNGRRLYKDFVLNVKFDAPFRPADTDDEVRFDRFGDGIGRYNIFTYLRAGSGRYRYQKVGYWAEGLTLDTSFIPWASPSAGPLPASRCSEPCLQNEVKSVQPGEVCCWLCIPCQPYEYRLDEFTCADCGLGYWPNASLTGCFELPQEYIRWGDAWAVGPVTIACLGALATLFVLGVFVRHNATPVVKASGRELCYILLGGVFLCYCMTFVFIAKPSTAVCTLRRLGLGTAFSVCYSALLTKTNRIARIFGGAREGAQRPRFISPASQVAICLALISGQLLIVAAWLVVEAPGTGKETAPERREVVTLRCNHRDASMLGSLAYNVLLIALCTLYAFKTRKCPENFNEAKFIGFTMYTTCIIWLAFLPIFYVTSSDYRVQTTTMCVSVSLSGSVVLGCLFAPKLHIILFQPQKNVVSHRAPTSRFGSAAPRASANLGQGSGSQFVPTVCNGREVVDSTTSSL
modifications: SNAP tag labelled with BG-LD555 (SiMPull); SNAP tag labelled with donor and acceptor fluorophores (inter-LBD FRET)
notes: metabotropic glutamate receptor 2 (mGluR2), rat, full-length, behind N-terminal HA and SNAP tags; construct of Doumazane et al., 2011; also called mGluR2-WT; WT-SNAP-mGluR2; source: HEK 293T, transfected; surface-labelled, in detergent lysate (SiMPull); on living cells (FRET); not shown: HA, N-terminal, kept; SNAP, N-terminal, kept
B5: SNAP-mGluR5-TMD (domain or fragment, human, UniProt P41594 570-1212, looked up)
chain: VQYLRWGDPEPIAAVVFACLGLLATLFVTVVFIIYRDTPVVKSSSRELCYIILAGICLGYLCTFCLIAKPKQIYCYLQRIGIGLSPAMSYSALVTKTNRIARILAGSKKKICTKKPRFMSACAQLVIAFILICIQLGIIVALFIMEPPDIMHDYPSIREVYLICNTTNLGVVTPLGYNGLLILSCTFYAFKTRNVPANFNEAKYIAFTMYTTCIIWLAFVPIYFGSNYKIITMCFSVSLSATVALGCMFVPKVYIILAKPERNVRSAFTTSTVVRMHVGDGKSSSAASRSSSLVNLWKRRGSSGETLRYKDRRLAQHKSEIECFTPKGSMGNGGRATMSSSNGKSVTWAQNEKSSRGQHLWQRLSIHINKKENPNQTAVIKPFPKSTESRGLGAGAGAGGSAGGVGATGGAGCAGAGPGGPESPDAGPKALYDVAEAEEHFPAPARPRSPSPISTLSHRAGSASRTDDDVPSLHSEPVARSSSSQGSLMEQISSVVTRFTANISELNSMMLSTAAPSPGVGAPLCSSYLIPKEIQLPTTMTTFAEIQPLPAIEVTGGAQPAAGAQAAGDAARESPAAGPEAAAAKPDLEELVALTPPSPFRDSVDSGSTTPNSPVSESALCIPSSPKYDTLIIRDYTQSSSSL
modifications: SNAP tag labelled with BG-LD555 (SiMPull); with donor and acceptor fluorophores (FRET)
notes: mGluR5, human; LBD and CRD deleted; following the SNAP tag the receptor starts at V570; Made by modifying the full-length SNAP-tagged cDNA of Doumazane et al., 2011; source: HEK 293T, transfected; surface-labelled, in detergent lysate (SiMPull); on living cells (FRET); not shown: HA, N-terminal, kept; SNAP, N-terminal, kept

Molecular target: the molecule itself
Assay: single-molecule pulldown (SiMPull) with subunit counting by photobleaching steps; surface receptors labelled with BG-LD555 on HEK 293T cells, lysed in 1.2% IGEPAL, diluted in 0.1% IGEPAL, immobilised by biotinylated anti-HA antibody on a PEG-passivated coverslip, TIRF imaging; SNAP labelling efficiency ~80%; background two-step bleaching ~5-10%

Row | Protein | percent of spots bleaching in two steps [%] | stoichiometry N
1 | B1 | ~30 | 2
2 | B2 | ~30 | 2
3 | B3 | ~45 | 2
4 | B4 | ~60 | 2
5 | B5 | ~30 | 2
